The results in this text go back to patent US20190010233A1 (JIANGSU HYAMAB PHARMACEUTICAL, published 2019).

For orientation: Kd means the equilibrium constant for the complex coming apart. A high value points to weaker binding. What is called koff is a measure of how fast the partners let go of each other. High values mean fast dissociation, low ones slow dissociation. For orientation: kon means the rate constant with which the complex forms. A lower kon goes with slow association.

Experiment [1] concerns the target T1, full length cyno PD-L1 on cells (cyno, UniProt G7PSE7 19-290).
T1 construct: also called CHO-K1-cPD-L1
As to the kind of experiment: FACS CHO-K1-cPD-L1, 100.00 nM mAb. The procedure:
Other CHO-K1 were stably transfected with a pIRES plasmid containing the nucleic acid sequence encoding full length cyno PD-L1 to generate CHO-K1 cells stably expressing cyno PD-L1 (herein referred to as CHO-K1-cPD-L1 cells). […] The culture media was aspirated, and the cells were washed twice with HBSS (Hanks Balanced Salt Solution, Invitrogen). The cells were treated with enzyme-free cell dissociation solution (Versene solution, Invitrogen) and collected. The cells were then washed twice with HBSS, cell counts were determined, and cells were resuspended with HBSS at 2×10⁶ cells/mL. Goat serum was added to the cell suspension to a final concentration of 1%, and the cells were blocked for 30 minutes on ice and then washed twice with HBSS. The cells were collected after centrifugation and resuspended in FACS buffer (HBSS+1% BSA, v/v) at 2×10⁶ cells/mL. 100 μL of the cell suspension were then added to each well of 96-well plate. 100 μL of purified anti-PD-L1 antibodies from Example 2 were added to each well of the 96-well plate and incubated for 2 hours on ice. […] The samples were washed three times with FACS buffer, and 100 μL fixation buffer (4% paraformaldehyde v/v) were added to each well and incubated for 10 minutes. The cells were then washed twice with FACS buffer and resuspended in 100 μL FACS buffer. The mean fluorescence intensity (MFI) was determined using FACS Calibur (BD), and the results are shown in FIGS. 7-8 and in Tables 10-11.

The target in experiment [2] is T2, human PD-L1^ECD-hFc protein (human, UniProt Q9NZQ7 19-239, biotinylated in the PD-1 binding ELISA (Table 3) and in the Octet assay (Table 12)).
T2 construct: The plain and the biotinylated protein are kept as one molecule; also called PD-L1-hFc; Immunogen A; not shown: human IgG Fc fragment (hFc)
Kind of experiment: ELISA, 10 nM mAb. The procedure:
(§1) 100 μL of the diluted recombinant proteins were added to each well of 96-well plate. The plates were sealed with plastic film and incubated at 4° C. overnight. The plates were washed twice with wash buffer (PBS+0.01% (v/v) Tween20), and incubated with blocking buffer (PBS+0.01% (v/v) Tween20+1% (w/w) BSA) at room temperature for 2 hours. The blocking buffer was aspirated away, and 100 μL of purified anti-PD-L1 antibodies were added to each well and incubated for 2 hours at 37° C. The plates were washed three times with wash buffer (PBS+0.01% (v/v) Tween20). HRP-conjugated secondary antibody (Sigma) was added to each well and incubated for 2 hours at 37° C. After the plates were washed three times with wash buffer, 100 μL TMB substrate were added to each well, and the plates were incubated for 30 minutes at room temperature. 100 μL stop solution (0.1N HCl) was added to each well to stop the reaction.

The target of experiment [3] is T2, human PD-L1^ECD-hFc protein. As to the kind of experiment: BLI Octet Red 96, biotinylated PD-L1-hFc on SA sensor. Here is the method:
Dissociation constants were determined by Octed red 96 (Fortiebio). The detailed operation and methods were followed according to the specifications of the instrument provided by the manufacturer. Briefly, a streptavidin sensor (SA sensor, Fortiebio) was used for the affinity determination. […] The reaction mixture was further incubated in PBS buffer (pH 7.4) containing 0.1% (v/w) BSA and 0.02% (v/v) Tween20 at 30° C. for 5 minutes.
(In general: BLI is a label-free optical method that tracks binding on a fibre tip over time.)

Experiment [4] deals with T3, full length human PD-L1 on cells (human, UniProt Q9NZQ7 19-290). Kind of experiment: cell-based or functional assay.
Experiment [5] addresses T3, full length human PD-L1 on cells. As to the kind of experiment: FACS CHO-K1-hPD-L1, 100.00 nM mAb.
The target in experiment [6] is T2, human PD-L1^ECD-hFc protein. As to the kind of experiment: ELISA, 0.01 nM mAb. The procedure:
as §1

T3 sequence (Q9NZQ7 19-290 limits assumed): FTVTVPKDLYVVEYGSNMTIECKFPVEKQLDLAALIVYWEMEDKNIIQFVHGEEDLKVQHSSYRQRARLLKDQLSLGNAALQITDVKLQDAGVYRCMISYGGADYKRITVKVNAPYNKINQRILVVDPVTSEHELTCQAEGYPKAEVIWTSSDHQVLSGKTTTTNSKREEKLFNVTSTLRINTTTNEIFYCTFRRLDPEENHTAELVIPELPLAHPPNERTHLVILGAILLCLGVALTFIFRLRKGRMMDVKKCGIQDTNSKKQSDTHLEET
T2 sequence (Q9NZQ7 19-239): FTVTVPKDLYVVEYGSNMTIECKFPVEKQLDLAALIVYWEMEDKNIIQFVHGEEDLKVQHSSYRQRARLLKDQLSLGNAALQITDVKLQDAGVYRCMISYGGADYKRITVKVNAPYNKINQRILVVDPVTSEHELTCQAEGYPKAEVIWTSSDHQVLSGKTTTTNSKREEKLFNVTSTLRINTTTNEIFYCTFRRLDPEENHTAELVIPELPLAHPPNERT
T1 sequence (G7PSE7 entry or part of it limits assumed): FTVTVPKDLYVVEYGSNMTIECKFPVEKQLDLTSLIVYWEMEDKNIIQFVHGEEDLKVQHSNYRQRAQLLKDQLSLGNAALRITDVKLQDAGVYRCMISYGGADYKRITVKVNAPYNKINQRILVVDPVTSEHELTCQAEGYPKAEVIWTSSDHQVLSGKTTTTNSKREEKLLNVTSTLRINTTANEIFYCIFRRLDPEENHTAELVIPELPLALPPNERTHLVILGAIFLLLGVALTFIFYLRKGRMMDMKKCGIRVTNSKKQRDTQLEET

B1: chimeric anti-PD-L1 antibody 192D9E7 (antibody, V domains shown)
VH: EVQLVESGGGLVQPGGSLRLSCAASGFTFSSYWMSWVRQAPGKGLEWVADIKQDGSEKYYVDSVKGRFTISRDNAKNSLYLQMNSLRAEDTAVYYCTRDKPHWGGVMDAWGQGTSVTVSS
VL: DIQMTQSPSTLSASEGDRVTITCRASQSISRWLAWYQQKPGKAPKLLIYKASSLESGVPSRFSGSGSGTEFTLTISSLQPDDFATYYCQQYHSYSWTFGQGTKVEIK
notes: Purified from hybridoma of Harbour H2L2 mice: human variable regions, rat constant regions
For B1, in experiment [1], the Mean fluorescence intensity was found to be 87.9. In experiment [2], the OD450 nm came to 2.69. In experiment [3], this molecule yielded a Kd of 0.0519 nM, a dissociation rate constant (koff) of 2.63e-05 s⁻¹ and a kon of 506000 M⁻¹ s⁻¹. Further, in experiment [4], the “IFN-γ (pg/mL), PBMC stimulation, 0.001 µg/mL mAb” value turned out to be 602 pg/mL; the “IFN-γ (pg/mL), PBMC stimulation, 0.01 µg/mL mAb” value stood at 501 pg/mL; the “IFN-γ (pg/mL), PBMC stimulation, 0.1 µg/mL mAb” value was 7470 pg/mL; the “IFN-γ (pg/mL), PBMC stimulation, 1 µg/mL mAb” value was determined as 8300 pg/mL. The “IFN-γ (pg/mL), PBMC stimulation, 10 µg/mL mAb” value in experiment [4] came to 15700 pg/mL. In addition, in experiment [5], the Mean fluorescence intensity amounted to 146. The OD450 nm in experiment [6] is 0.4.
